According to patent US20200325220A1 (INSTITUTE FOR RESEARCH IN BIOMEDICINE, published 2020):

Tests used:
[1] = target: T1, recombinant human GM-CSF (human, UniProt P04141 18-144); experiment: SPR, GM-CSF on the chip, antibody then collagen
[2] = target: T1, recombinant human GM-CSF; experiment: SPR, antibody captured on protein A, GM-CSF then collagen
[3] = target: T2, type I recombinant human collagen (human, UniProt P02452 162-1218; P08123 80-1119); experiment: as above
[4] = target: T1, recombinant human GM-CSF; experiment: SPR, GM-CSF on the chip
[5] = target: T1, recombinant human GM-CSF; experiment: ELISA, plate coated with GM-CSF
[6] = target: T2, type I recombinant human collagen; experiment: SPR, GM-CSF on the chip, antibody then collagen

T1 sequence (P04141 18-144 limits assumed): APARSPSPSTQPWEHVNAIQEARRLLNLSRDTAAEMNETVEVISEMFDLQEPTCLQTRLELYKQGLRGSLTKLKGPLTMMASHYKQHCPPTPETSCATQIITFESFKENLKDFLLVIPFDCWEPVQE
T2 sequence (P02452 162-1218 limits assumed, chain 1 of 2): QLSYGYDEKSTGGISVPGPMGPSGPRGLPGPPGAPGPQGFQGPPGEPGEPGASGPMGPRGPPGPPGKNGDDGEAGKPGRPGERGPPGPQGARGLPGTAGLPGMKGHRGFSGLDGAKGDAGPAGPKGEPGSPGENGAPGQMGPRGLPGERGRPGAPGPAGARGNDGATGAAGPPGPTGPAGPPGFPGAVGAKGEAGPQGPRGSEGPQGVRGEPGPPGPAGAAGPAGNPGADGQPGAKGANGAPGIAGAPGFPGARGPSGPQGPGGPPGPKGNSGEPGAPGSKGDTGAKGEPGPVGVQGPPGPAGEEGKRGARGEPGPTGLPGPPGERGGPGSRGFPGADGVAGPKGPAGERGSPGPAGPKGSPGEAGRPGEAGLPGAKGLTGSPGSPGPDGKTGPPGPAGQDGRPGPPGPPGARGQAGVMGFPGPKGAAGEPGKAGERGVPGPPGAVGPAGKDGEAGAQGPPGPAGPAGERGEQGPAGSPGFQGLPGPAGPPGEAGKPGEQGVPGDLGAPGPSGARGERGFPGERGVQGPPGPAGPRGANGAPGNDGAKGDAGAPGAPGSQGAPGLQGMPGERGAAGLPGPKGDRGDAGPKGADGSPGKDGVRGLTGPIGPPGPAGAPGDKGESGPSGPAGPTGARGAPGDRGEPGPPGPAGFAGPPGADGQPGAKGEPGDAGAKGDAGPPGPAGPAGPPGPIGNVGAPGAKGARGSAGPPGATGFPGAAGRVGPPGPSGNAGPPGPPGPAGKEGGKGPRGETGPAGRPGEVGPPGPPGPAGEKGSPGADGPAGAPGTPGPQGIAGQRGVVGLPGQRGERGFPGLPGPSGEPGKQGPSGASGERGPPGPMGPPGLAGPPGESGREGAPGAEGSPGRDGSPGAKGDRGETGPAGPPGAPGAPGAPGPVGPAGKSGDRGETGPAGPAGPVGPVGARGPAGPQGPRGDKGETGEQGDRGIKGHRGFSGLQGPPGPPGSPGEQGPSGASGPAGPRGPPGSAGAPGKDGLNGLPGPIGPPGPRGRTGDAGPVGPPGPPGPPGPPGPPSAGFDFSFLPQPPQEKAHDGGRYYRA
T2 sequence (P08123 80-1119 limits assumed, chain 2 of 2): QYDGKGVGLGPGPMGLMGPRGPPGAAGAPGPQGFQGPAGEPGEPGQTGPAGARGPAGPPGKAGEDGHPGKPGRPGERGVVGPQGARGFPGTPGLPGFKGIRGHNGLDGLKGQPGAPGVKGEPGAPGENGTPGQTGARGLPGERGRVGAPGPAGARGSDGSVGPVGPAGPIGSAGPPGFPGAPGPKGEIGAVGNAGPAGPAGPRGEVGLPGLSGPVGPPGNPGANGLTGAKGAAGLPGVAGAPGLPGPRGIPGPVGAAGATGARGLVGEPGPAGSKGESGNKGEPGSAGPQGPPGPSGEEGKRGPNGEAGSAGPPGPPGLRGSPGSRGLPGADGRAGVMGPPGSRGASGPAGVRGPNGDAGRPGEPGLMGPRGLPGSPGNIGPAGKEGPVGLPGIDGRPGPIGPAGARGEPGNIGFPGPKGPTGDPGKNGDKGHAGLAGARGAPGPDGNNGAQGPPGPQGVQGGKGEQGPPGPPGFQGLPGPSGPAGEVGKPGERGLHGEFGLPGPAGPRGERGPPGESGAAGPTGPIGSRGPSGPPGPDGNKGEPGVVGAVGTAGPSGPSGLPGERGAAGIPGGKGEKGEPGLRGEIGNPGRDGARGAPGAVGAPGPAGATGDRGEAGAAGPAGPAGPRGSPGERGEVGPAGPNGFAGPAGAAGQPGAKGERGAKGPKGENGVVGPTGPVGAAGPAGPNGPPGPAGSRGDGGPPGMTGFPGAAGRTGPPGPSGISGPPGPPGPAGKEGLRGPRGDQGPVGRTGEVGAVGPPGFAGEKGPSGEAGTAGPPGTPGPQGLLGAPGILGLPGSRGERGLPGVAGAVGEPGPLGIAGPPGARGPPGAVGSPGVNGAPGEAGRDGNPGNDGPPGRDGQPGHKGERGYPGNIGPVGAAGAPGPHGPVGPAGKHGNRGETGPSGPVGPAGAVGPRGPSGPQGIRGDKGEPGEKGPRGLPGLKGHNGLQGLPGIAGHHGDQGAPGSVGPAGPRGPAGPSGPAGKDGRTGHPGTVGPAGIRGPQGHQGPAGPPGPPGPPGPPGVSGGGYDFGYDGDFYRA

B1: MGD^UCA (antibody, human IgG1, kappa)
heavy: not shown
light: AIRMTQSPSSFSASTGDRVTITCRASQGISSYLAWYQQKPGKAPKLLIYAASTLQSGVPSRFSGSGSGTDFTLTISCLQSEDFATYYCQQYYSYPPDFGQGTRLEIKRTVAAPSVFIFPPSDEQLKSGTASVVCLLNNFYPREAKVQWKVDNALQSGNSQESVTEQDSKDSTYSLSSTLTLSKADYEKHKVYACEVTHQGLSSPVTKSFNRGEC
notes: also called collagen-specific MGD^UCA antibody
[1]
  binding result: no binding (tested: antibody 10 nM)

B2: FI174 (antibody, V domains shown)
VH: QVQLVQSGAEVRKPGSSVKVSCKTSGGIIRKYALSWVRQAPGQGLEWMGGIIAIFGTTNYAQKFQGRVTINADESTSTVYLELSSLTSEDTAIYYCAGSATYYESRFDYWGQGTLVTVSS
VL: EIVLTQSPGTLSLSPGARATLSCRASQSVSSSSLAWYQQKPGQAPRLLIYDASSRATGIPDRFSGSGSGTDFTLTISRLEPEDFAVYYCHQYGDSRKTFGQGTKVEIKR
notes: also called F1174; FI74
[1]
  binding result: no binding (tested: antibody 10 nM)

B3: TT107 (antibody, V domains shown)
VH: QVQLIQSGGGLVKPGGSLRLSCAASGFTFSDYYMSWIRQVPGKGLEWISVISATTGYTDYADSVKGRFTISRDNAKNSVFLQMNSLRVDDMAVYYCAREVLGTAWFDYWGQGTLVTISS
VL: EIVLTQSPGTLSLSPGERATLSCRASQSVTSNYLAWYQQKPGQAPRLLIYGVSRRATGIPDRFSGSGSGTDFALTISRLEPEDFAVYYCQQYRSSPRTFGPGTKVEFKR
notes: also called TT-specific monoclonal antibody
[2]
  binding result: no binding (tested: GM-CSF 50 nM)
[3]
  binding result: no binding (tested: collagen 50 nM)

B4: C4 (bispecific antibody, human IgG1, kappa)
heavy: not shown
light: EIVLTQSPGTLSLSPGETAILSCRASQSVSSSLLAWYQQKPGQAPRLLIYGASNRATGIRGRFSGSGSGTDFTLTISRLEPEDFVLYYCQHYGSRVTFGQGTKLEIKRTVAAPSVFIFPPSDEQLKSGTASVVCLLNNFYPREAKVQWKVDNALQSGNSQESVTEQDSKDSTYSLSSTLTLSKADYEKHKVYACEVTHQGLSSPVTKSFNRGEC
notes: also called construct C4; bispecific construct C4
[4]
  binding result: binds

B5: C5b (antibody, human IgG1, kappa)
heavy: not shown
light: EIVLTQSPGTLSLSPGETAILSCRASQSVSSSLLAWYQQKPGQAPRLLIYGASNRATGIRGRFSGSGSGTDFTLTISRLEPEDFVLYYCQHYGSRVTFGQGTKLEIKRTVAAPSVFIFPPSDEQLKSGTASVVCLLNNFYPREAKVQWKVDNALQSGNSQESVTEQDSKDSTYSLSSTLTLSKADYEKHKVYACEVTHQGLSSPVTKSFNRGEC
notes: also called construct C5b
[5]
  binding result: binds

B6: C6b (antibody, human IgG1, kappa)
heavy: not shown
light: EIVLTQSPGTLSLSPGETAILSCRASQSVSSSLLAWYQQKPGQAPRLLIYGASNRATGIRGRFSGSGSGTDFTLTISRLEPEDFVLYYCQHYGSRVTFGQGTKLEIKRTVAAPSVFIFPPSDEQLKSGTASVVCLLNNFYPREAKVQWKVDNALQSGNSQESVTEQDSKDSTYSLSSTLTLSKADYEKHKVYACEVTHQGLSSPVTKSFNRGEC
notes: also called construct C6b
[5]
  binding result: binds

B7: GCE536 (antibody, human IgG1, kappa)
heavy: not shown
light: EIVLTQSPGTLSLSPGETAILSCRASQSVSSSLLAWYQQKPGQAPRLLIYGASNRATGIRGRFSGSGSGTDFTLTISRLEPEDFVLYYCQHYGSRVTFGQGTKLEIKRTVAAPSVFIFPPSDEQLKSGTASVVCLLNNFYPREAKVQWKVDNALQSGNSQESVTEQDSKDSTYSLSSTLTLSKADYEKHKVYACEVTHQGLSSPVTKSFNRGEC
notes: also called anti-GM-CSF antibody; scaffold antibody
[4]
  binding result: binds
[6]
  binding result: no binding (tested: collagen 50 nM)

B8: C5 (antibody, human IgG1, kappa)
heavy: not shown
light: EIVLTQSPGTLSLSPGETAILSCRASQSVSSSLLAWYQQKPGQAPRLLIYGASNRATGIRGRFSGSGSGTDFTLTISRLEPEDFVLYYCQHYGSRVTFGQGTKLEIKRTVAAPSVFIFPPSDEQLKSGTASVVCLLNNFYPREAKVQWKVDNALQSGNSQESVTEQDSKDSTYSLSSTLTLSKADYEKHKVYACEVTHQGLSSPVTKSFNRGEC
notes: also called construct C5
[4]
  binding result: binds
